Measurements taken from article PMC6305486.

Molecular target: FtsQ_(50–276), P06136
Assay: BLI
Conditions: chain shown with the change; GST-e5-FtsB (mutant) in complex with k5-FtsL immobilized; FtsQ analyte 0-60 µM; parent: 0.24 ± 0.01

Chain of FtsQ_(50–276), P06136 (P06136 50-276): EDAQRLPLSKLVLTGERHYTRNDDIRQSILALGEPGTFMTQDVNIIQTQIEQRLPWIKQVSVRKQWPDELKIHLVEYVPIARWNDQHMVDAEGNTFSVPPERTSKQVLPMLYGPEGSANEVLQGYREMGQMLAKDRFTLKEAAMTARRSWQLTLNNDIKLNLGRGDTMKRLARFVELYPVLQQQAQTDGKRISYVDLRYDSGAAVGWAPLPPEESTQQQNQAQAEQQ

B1: GST-fused e5-FtsB_(25–103)/k5-FtsL_(64–121) complex (WT), P0A6S5;P0AEN4 E68A (protein)
chain 1: GIHDYTRVNDDVAAQQATNAKLKARNDQLFAEIDDLNGGQEALAERARNELSMTRPGETFYRLVPDASKRAQSAGQNNR
chain 2: TAQREQLVLERDALDIEWRNLILEENALGDHSRVERIATEKLQMQHVDPSQENIVVQK
A Kd of 2.4 µM was found for B1 in this work.
